Data: paper PMC4374754 (2015)

Biological target: T1, DNA polymerase V (UmuD′2C) (E. coli, UniProt P04152 1-422; P0AG11 25-139)
T1 chain 1: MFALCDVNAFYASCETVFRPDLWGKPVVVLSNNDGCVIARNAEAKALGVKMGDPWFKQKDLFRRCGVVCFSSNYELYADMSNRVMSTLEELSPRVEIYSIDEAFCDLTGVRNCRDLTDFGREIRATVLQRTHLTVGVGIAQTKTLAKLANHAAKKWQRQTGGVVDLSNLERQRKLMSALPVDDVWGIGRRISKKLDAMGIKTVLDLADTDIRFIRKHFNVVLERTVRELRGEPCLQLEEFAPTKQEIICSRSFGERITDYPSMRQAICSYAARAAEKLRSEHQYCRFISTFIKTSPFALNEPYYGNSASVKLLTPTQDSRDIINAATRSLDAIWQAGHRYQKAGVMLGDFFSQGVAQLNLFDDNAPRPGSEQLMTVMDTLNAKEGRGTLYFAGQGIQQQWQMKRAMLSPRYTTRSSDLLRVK
T1 chain 2: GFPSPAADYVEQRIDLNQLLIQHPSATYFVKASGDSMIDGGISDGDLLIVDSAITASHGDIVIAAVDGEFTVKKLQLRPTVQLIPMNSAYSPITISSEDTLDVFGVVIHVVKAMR
Assay: FP; apparent Kd

B1: RecA D112R, fluorescein-labelled (natural protein)
chain: AIDENKQKALAAALGQIEKQFGKGSIMRLGEDRSMDVETISTGSLSLDIALGAGGLPMGRIVEIYGPESSGKTTLTLQVIAAAQREGKTCAFIDAEHALDPIYARKLGVDIRNLLCSQPDTGEQALEICDALARSGAVDVIVVDSVAALTPKAEIEGEIGDSHMGLAARMMSQAMRKLAGNLKQSNTLLIFINQIRMKIGVMFGNPETTTGGNALKFYASVRLDIRRIGAVKEGENVVGSETRVKVVKNKIAAPFKQAEFQILYGEGINFYGELVDLGVKEKLIEKAGAWYSYKGEKIGQGKANATAWLKDNPETAKEIEKKVRELLLSNPNSTPDFSVDDSEGVAETNEDF
modifications: fluorescein (Fluorescein-EX Protein Labeling Kit); labelled residues not stated
For B1, the Kd was 297 nM.

B2: wild-type E. coli RecA protein, fluorescein-labelled (natural protein)
chain: MAIDENKQKALAAALGQIEKQFGKGSIMRLGEDRSMDVETISTGSLSLDIALGAGGLPMGRIVEIYGPESSGKTTLTLQVIAAAQREGKTCAFIDAEHALDPIYARKLGVDIDNLLCSQPDTGEQALEICDALARSGAVDVIVVDSVAALTPKAEIEGEIGDSHMGLAARMMSQAMRKLAGNLKQSNTLLIFINQIRMKIGVMFGNPETTTGGNALKFYASVRLDIRRIGAVKEGENVVGSETRVKVVKNKIAAPFKQAEFQILYGEGINFYGELVDLGVKEKLIEKAGAWYSYKGEKIGQGKANATAWLKDNPETAKEIEKKVRELLLSNPNSTPDFSVDDSEGVAETNEDF
modifications: fluorescein (Fluorescein-EX Protein Labeling Kit); labelled residues not stated
Binder B2 has a Kd of 239 nM.
